Substitutions are numbered along the chain they refer to. Names may count otherwise. Like-named read-outs stand apart in the source and are kept apart here.
Assays:
human CXCL13 [1] = target: T1, human CXCL13 (human, UniProt O43927 23-109); experiment: ELISA, huCXCL13 coated on the plate, full length humanized IgG1 titrated, OD450
T1 construct: also called huCXCL13; rhCXCL13
T1 sequence (looked up): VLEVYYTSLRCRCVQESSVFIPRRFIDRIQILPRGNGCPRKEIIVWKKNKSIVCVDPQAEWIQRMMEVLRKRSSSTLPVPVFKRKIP
In short: (§1)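 Human CXCL13 (100 μl at 0.5 μg/ml) was coated onto plates overnight and blocked with 200 μl 5% BSA in PBS. Serially diluted IgG1 antibodies were bound for 30 min at room temperature. After PBS/T washes, goat anti-human IgG Fc-HRP was added for 30 min at room temperature. EC50 came from the antibody titration.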

human CXCL13 [2] = target: T1, human CXCL13; experiment: ELISA, huCXCL13 coated on the plate, chimeric IgG1 titrated, OD450
In short: as §1

human CXCL13 [3] = target: T1, human CXCL13; experiment: cell-based blocking ELISA, CXCL13 to CHO-K1-CXCR5
Experimental: This example tested the blocking of the anti-CXCL13 chimeric antibodies to CHO-K1-CXCR5 cells. Briefly, 5×10⁴ CHO-K1-CXCR5 cells were plated in 96-well plate with 100 μl of culture medium and incubated at 37° C. overnight. Cells were fixed with 100 μl of 2% PFA at RT for 1 hr after washing with PBS for 1 time. Samples were blocked with 1% BSA in PBST for 1 hr at RT. Antibodies were serial diluted from 50 μg/ml by 3-fold with 1% BSA/PBST and pre-incubated with equal volume of 0.3 μg/ml human CXCL13 for 30 min at RT. 100 μl of antibody-antigen complex was transferred into each cell wells for 30 min at RT. Samples were washed with 1×PBST for 3 times and 100 μl of 3 μg/ml of human Mab5261 antibody was added into each well to capture human CXCL13 and anti-human Fc-HRP was used to indirectly detect human CXCL13 when it bound to CHO-K1-CXCR5 cells.
Then read at 450 nm. […] Among all clones, 415A3D1, 64C10G1, 1H3A11, 414D10F5, 411A11E9, 21H12D9, 71F4A3, 329F2E1 show completely blocking activity and 408E3F3, 19H7E10, 339A6E7 appeared to be partial blockers.

cynomolgus CXCL13 = target: T2, cynomolgus CXCL13 (cynomolgus, UniProt H6WS58 23-109); experiment: ELISA, coated antigen, chimeric IgG1
T2 construct: also called cynoCXCL13; Cyno CXCL13
T2 sequence: T1 sequence (looked up) with S8H, L32S, I52V, M65I, V68M, R72K, L77P
Experimental: (§2) Elisa based binding assay. […] Briefly, 100 μl of human CXCL13 or cynomolgus CXCL13 was coated at 0.5 μg/ml overnight and then blocked by 200 μl of 5% BSA in PBS. Serial diluted antibodies were incubated with the coated antigen for 30 min at RT. The resulting plates were washed with PBS/T and incubated with goat anti-human IgG Fc-HRP for 30 min RT. The plates were developed with TMB substrate after washing with 1×PBST for 5 times and reaction stopped with 1N HCl and analyzed by spectrophotometer at OD 450-630 nm.

human CXCL13 [4] = target: T1, human CXCL13; experiment: ELISA, coated antigen, chimeric IgG1
Experimental: as §2

human CXCL13 [5] = target: T1, human CXCL13; experiment: SPR Biacore T200
Excerpt: In the first approach, mutations were chosen to target the hotspots in LCDR1, HCDR2 and HCDR3. Usually, CDR3 contributes most to antigen binding and heavy chain is more important than light chain for antigen binding. Moreover, LCDR1 is important for antigen binding. For the first trial, random mutations were targeted to hotspots in LCDR1, HCDR2 and HCDR3. Eliminate hotspots that code for conserved and buried amino acids in CDRs. […] After finishing construction of phage library, antigen CXCL13 screening was followed. Antibodies of these sequences were generated, and affinity testing was performed by Biacore T200.

human CXCL13 [6] = target: T1, human CXCL13; experiment: SPR Biacore T200; remark: listed apart in the source
Experimental: (§3) In the second approach, mutations were carried out by multiple libraries including 4 different sub libraries, such as saturated mutation libraries by CDR walking for CDR L1, CDR L3, CDR H3 or CDR L2, CDR H1, CDR H2 and saturated mutation libraries by three aa mutated continuously for CDR H3 or CDR L3. After finishing construction of phage sub libraries, antigen CXCL13 screening followed. Antibodies of these sequences were generated, and affinity testing was performed by Biacore T200. To further optimize the antibodies, the lead clones were then back mutated to its humanized counterpart one aa by one aa. Sequences were generated and synthesized for antibodies. Affinity was tested by Biacore T200.

human CXCL13 [7] = target: T1, human CXCL13; experiment: SPR Biacore T200; remark: listed apart in the source
Experimental: as §3

human CXCL13 [8] = target: T1, human CXCL13; experiment: ELISA, huCXCL13 coated on the plate, full length humanized IgG1 titrated, OD450; remark: listed apart in the source
human CXCL13 [9] = target: T1, human CXCL13; experiment: SPR Biacore T200; remark: listed apart in the source
Experimental: To further optimization of 71F4-B, each Mutations in 71F4A3 useful for improving binding (Kon) were added into 71F4-B, the sequences were listed in Table 28. Antibodies according to these sequences were generated and affinity testing was performed by Biacore T200.

human CXCL13 [10] = target: T1, human CXCL13; experiment: SPR Biacore T200; remark: listed apart in the source
human CXCL13 [11] = target: T1, human CXCL13; experiment: ELISA, huCXCL13 coated on the plate, chimeric IgG1 titrated, OD450; remark: listed apart in the source
In short: as §1

B1: 64C10G1-VH1VL3 (D53E, D107E) humanized IgG1 (antibody, V domains shown)
VH: EVQLVESGGGLVQPGGSLRLSCAASGFTFSSYAMSWVRQAPGKGLEWVATISEGGSDAYYPDNVKGRFTISRDNAKNSLYLQMNSLRAEDTAVYYCARDYYGSGYEESPMDYWGQGTLVTVSS
VL: DIQMTQSPSSLSASVGDRVTITCKASQDINKYIAWYQQKPGKAPKLLIHYTSTLQPGIPSRFSGSGSGTDFTFTISSLQPEDFATYYCLQYDNLYTFGGGTKLEIK
notes: Full length IgG1, human gamma 1 and kappa constant domains
EC50 (human CXCL13 [1]): 0.0664 nM

B2: 64C10G1 chimeric human IgG1 antibody (antibody, V domains shown)
VH: EVQLVESGGGLVKPGGSLKLSCAASGFTFSSYAMSWVRQTPEKRLEWVATISDGGSDAYYPDNVKGRFTISRDNAKNNLYLQMSHLKSEDTAMYYCARDYYGSGYEDSPMDYWGQGTSVTVSS
VL: DIQMTQSPSSLSASLGGKVTITCKASQDINKYIAWYQHKPGKGPRLLIHYTSTLQPGIPSRFSGSGSGRDYSFSISNLEPEDFATYYCLQYDNLYTFGGGTKLEIK
notes: Chimeric human IgG1; also called chimeric 64C10G1
EC50 (human CXCL13 [2]): 0.0305 nM
IC50 (human CXCL13 [3]): 1.1 mg/L
EC50 (cynomolgus CXCL13): 0.0563 mg/L
EC50 (human CXCL13 [4]): 0.0401 mg/L

B3: 71F4A3-VH1VL1 (Hz71F4) (D54E) humanized IgG1 (antibody, V domains shown)
VH: EVQLVESGGGLVQPGGSLRLSCAASGIDFSRYWMSWVRQAPGKGLEWVAEINPESSTINYAPSLKDRFTISRDNAKNSLYLQMNSLRAEDTAVYYCARQDDYEYYAMDYWGQGTTVTVSS
VL: DIQMTQSPSSLSASVGDRVTITCKASQDVNTGVAWYQQKPGKAPKLLIYSASYRYTGVPSRFSGSGSGTDFTFTISSLQPEDIATYYCQQYYSTPLTFGGGTKLEIK
notes: Full length IgG1, human gamma 1 and kappa; also called Hz71F4A3
apparent kon (pooled screen) (human CXCL13 [5]): 377000 M⁻¹ s⁻¹
apparent Kd (pooled screen) (human CXCL13 [6]): 2.58 nM
apparent koff (pooled screen) (human CXCL13 [6]): 0.000645 s⁻¹
apparent kon (pooled screen) (human CXCL13 [6]): 250000 M⁻¹ s⁻¹
apparent koff (pooled screen) (human CXCL13 [7]): 0.00126 s⁻¹
apparent EC50 (pooled screen) (human CXCL13 [8]): 0.108 nM

B4: 005-2-45 (antibody, V domains shown)
VH: B3 VH with Y102T, E103R
VL: B3 VL
koff (human CXCL13 [7]): 0.000776 s⁻¹

B5: 005-3-18 (antibody, V domains shown)
VH: B3 VH with A106T
VL: B3 VL with A25V, Y92W
Kd (human CXCL13 [6]): 1.24 nM
koff (human CXCL13 [6]): 0.000153 s⁻¹
kon (human CXCL13 [6]): 124000 M⁻¹ s⁻¹
koff (human CXCL13 [7]): 0.000158 s⁻¹

B6: 005-3-23 (antibody, V domains shown)
VH: B3 VH with D100E, M107L
VL: B3 VL with A34Y, Y91G
koff (human CXCL13 [7]): 0.000403 s⁻¹

B7: 71F4-B (antibody, V domains shown)
VH: B3 VH with A106T
VL: B3 VL with A25V
notes: also called 71F4A3-B
Kd (human CXCL13 [9]): 0.36 nM
koff (human CXCL13 [9]): 6.59e-05 s⁻¹
kon (human CXCL13 [9]): 183000 M⁻¹ s⁻¹
Kd (human CXCL13 [10]): < 1 nM
Kd (human CXCL13 [6]): 0.195 nM
koff (human CXCL13 [6]): 3.57e-05 s⁻¹
kon (human CXCL13 [6]): 183000 M⁻¹ s⁻¹

B8: 71F4A3-VH1VL2 (D54E) humanized IgG1 (antibody, V domains shown)
VH: B3 VH
VL: B3 VL with L78V
notes: as for B1
EC50 (human CXCL13 [8]): 0.0961 nM

B9: 71F4A3 chimeric human IgG1 antibody (antibody, V domains shown)
VH: EVKLLQSGGGLVQPGGSLKLSCAASGIDFSRYWMSWVRRAPGKGLEWIGEINPDSSTINYAPSLKDKFIISRDNAKNTLYLQMSKVRSEDTALYYCARQDDYEYYAMDYWGQGTSVTVSS
VL: DIVMTQSHKSMSTSVGDRVSITCKASQDVNTGVAWYRQKPGQSPKLLIYSASYRYTGVPDRFTGSGSGTDFTFTISSVQAEDLAVYYCQQYYSTPLTFGAGTKLELK
notes: Chimeric human IgG1; also called chimeric 71F4A3
IC50 (human CXCL13 [3]): 3.02 mg/L
EC50 (cynomolgus CXCL13): 0.0814 mg/L
EC50 (human CXCL13 [4]): 0.0381 mg/L
EC50 (human CXCL13 [11]): 0.116 nM

B10: 414D10F5 chimeric human IgG1 antibody (antibody, V domains shown)
VH: EVQLAESGGGLVQPGRSLKLSCSASGFTFSDYYMAWFRQAPPKGLEWVASISYDGGDSFYRDSVKGRFTISRDNAKSSLYLQMDSLRSEDTATYYCTTEEDYSGSFPDYWGQGVMVTVSS
VL: DIQMTQSPSFLSASVGDRVTINCKASQNINKYLNWYQQKLGEAPKRLIYDTNNLQAGIPSRFSGSGSGTDYTLTINSLQPEDFATYFCLQHNSLYTFGGGTKLELK
notes: Chimeric human IgG1
IC50 (human CXCL13 [3]): 1.26 mg/L
EC50 (cynomolgus CXCL13): 1.19 mg/L
EC50 (human CXCL13 [4]): 0.0628 mg/L

B11: 411A11E9 chimeric human IgG1 antibody (antibody, V domains shown)
VH: EVQLVESGGGLVQPGGSLKLSCVVSGFTFSDYYMAWVRQTPTKGLEWVASINYDGGDTYYRDSVKGRFTVSRNNAKSSLFLQMDSLRSEDTATYYCKTEEDYDGSYVMDAWGQGASVIVSS
VL: DIQMTQSPSFLSASVGDRVTISCKASQNINKELTWYQQKLGKAPKRLIYNTNILQTGIPSRFSGSGSNTDYTLTISSLQPEDFATYFCLQQSSLYTFGAGTKLELK
notes: Chimeric human IgG1
IC50 (human CXCL13 [3]): 1.71 mg/L
EC50 (cynomolgus CXCL13): 0.1 mg/L
EC50 (human CXCL13 [4]): 0.0485 mg/L

B12: 21H12D9 chimeric human IgG1 antibody (antibody, V domains shown)
VH: EVQLQQSGPVLVRPGASVKMSCKASGYTFTDYYMNWVKQSHGKSLEWIGVINPNNGGTTYKEKFKGKATLTVDKSSGTAYMELNSLTSEDSAVYYCARDDYDAGYWGQGTTLTVSS
VL: DIVMTQFQKFMSTTVGDRVSITCKASQNVDTAVAWYQHKPGQSPKLLIYSASHRYTGVPDRFTGSGSGTDFTLTISNVQSEDLADYFCQQYTDFPLTFGAGTKLELK
notes: Chimeric human IgG1
IC50 (human CXCL13 [3]): 1.89 mg/L
EC50 (cynomolgus CXCL13): 0.0488 mg/L
EC50 (human CXCL13 [4]): 0.0536 mg/L

B13: 329F2E1 chimeric human IgG1 antibody (antibody, V domains shown)
VH: B9 VH with E103D
VL: B9 VL with S10F, N30S, R37Q, G68R, A80T, L83P, Q89H, S93T, T94I, K103E
notes: Chimeric human IgG1
IC50 (human CXCL13 [3]): 3.55 mg/L
EC50 (cynomolgus CXCL13): 0.0416 mg/L
EC50 (human CXCL13 [4]): 0.0511 mg/L

— US20210284724A1 (I MAB BIOPHARMA US, published 2021)
